From article PMC6090078

Tested on: T1, AcrR (His6-AcrR) (Acinetobacter nosocomialis ATCC 17903 (NCTC 8102)?), ORF:b0b0015b
T1 sequence: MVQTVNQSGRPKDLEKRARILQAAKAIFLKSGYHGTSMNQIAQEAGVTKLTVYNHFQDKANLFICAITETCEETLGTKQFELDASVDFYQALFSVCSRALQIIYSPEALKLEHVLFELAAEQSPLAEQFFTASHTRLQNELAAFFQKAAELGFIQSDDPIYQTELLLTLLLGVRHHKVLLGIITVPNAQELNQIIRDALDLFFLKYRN
Assay: EMSA

Sequence: AAAACCCTCTAATAAAAGATTAAAAAAATAAATATTTATAAGTTTTTTTTAATTAATGTACCCATGGGTATATTAATTAAAAAACAAACAAACTATGATGCAAGCATATTGTGCCTTAAAAAATCAGTTTGAATAAGAGCGATAAGAT (double strand) [PacrA/acrR promoter fragment, 148 bp]
- binding: binds
